One molecule from patent US10293027B2, “Methods for treating metabolic disorders using FGF” (Salk Institute for Biological Studies, priority 2010, dated 2019) can be followed below.

Entries after “also recorded” stand apart in the source; their conditions may differ.

What all share (format): in vivo, mouse
One test has as its system ob/ob diabetic mice. Kind of test: Delivery method (s.c., i.p., i.v.) and FGF-1 blood glucose effects (Example 11). The procedure: FIG. 22. Assessment of delivery method on FGF-1 blood glucose effects.
FIG. 23. Assessment of delivery method on duration of FGF-1 activity. Single subcutaneous (sc) or intravenous (iv) injection of FGF-1 (0.5 mg/kg) in ob/ob mice.
To determine if the effects of FGF-1 depend on the route of administration, we tested blood glucose levels of ob/ob mice in response to 0.5 mg/kg body weight FGF-1 delivered s.c., i.p. and i.v. PBS injections were used as controls. […] We next compared i.v. and s.c. injections for duration of the glucose normalizing effect.

Test [1] concerns ob/ob mice. Put plainly: Glucose tolerance test after four weeks of FGF-1 administration. Particulars: after four weeks of 0.5 mg/kg/3 days s.c. As for the experimental part: Glucose tolerance tests (GTT) were conducted after overnight fasting. Mice were injected intraperitoneally (i.p.) with 1 g of glucose per/kg body weight, and blood glucose was monitored at 0, 15, 30, 60, 90, and 120 min using a OneTouch Ultra glucometer (Lifescan Inc). Insulin tolerance tests (ITT) were conducted after overnight fasting. Mice were injected i.p. with 0.5 U of insulin/kg body weight (Humulin R; Eli Lilly), and blood glucose was monitored at 0, 15, 30, 60, 90, and 120 min using a OneTouch Ultra glucometer (Lifescan Inc). Real-time metabolic analyses were conducted in an undisturbed room under 12 h/12 h light/dark cycles using a Comprehensive Lab Animal Monitoring System (Columbus Instruments).
These tests were carried out as described above.

Test [2] has as its system ob/ob mice. Put plainly: Chronic FGF-1 treatment for 36 days: glucose, food intake, body composition, serum lipids, liver (Examples 7-10). As for the experimental part: Blood was collected by tail bleeding either in the ad libitum fed state or following overnight fasting. Free fatty acids (Wako), triglycerides (Thermo), and cholesterol (Thermo) were measured using enzymatic colorimetric methods following the manufacturer's instructions. Serum insulin levels were measured using an Ultra Sensitive Insulin ELISA kit (Crystal Chem). Serum adiponectin levels were measured by ELISA (Millipore). Plasma adipokine levels were measured using a Milliplex™ MAP kit (Millipore).
Tissues were fixed in 4% phosphate-buffered formalin, embedded in paraffin, sectioned at 4 μm, and stained with hematoxylin and eosin according to standard procedures. For immunohistochemistry, tissues were deparaffinized in xylene and rehydrated. Slides were incubated with 5% normal donkey serum in PBS (+0.2% Triton-X100 and 1% BSA) for 30 min, and subsequently sections were incubated overnight with a 1:200 dilution of primary antibodies at 4° C. and using Alexa Fluor 488 or 595 as secondary antibodies for 2 hrs at RT.
(§1) In Example 5, ob/ob male mice (8 wk old) were randomized into three groups and treated with daily subcutaneous (s.c.) injections of recombinant mouse FGF-1 (0.5 mg/kg in PBS), oral rosiglitazone (TZD, 5 mg/kg in 0.5% carboxymethyl cellulose), or vehicle. Blood glucose levels were measure in fed animals one hour after treatment. Total body composition analysis was performed using an EchoMRI-100™ (Echo Medical Systems, LLC).
To investigate the metabolic effects of chronic FGF-1 treatment in ob/ob mice, eight weeks old male ob/ob mice were treated with vehicle or recombinant mouse FGF-1 (0.5 mg/kg/3 days, s.c.) for a period of 36 days. During this time, glucose levels, food intake, and body composition were monitored.

For another test, the system named is ob/ob male mice. Put plainly: Daily FGF-1 or rosiglitazone treatment of ob/ob mice: fed blood glucose and body composition (Example 5). As for the experimental part:
FIGS. 7A-7H. FGF-1 injection studies in rodents. (A) Fed blood glucose in ob/ob male mice treated with FGF-1 (0.5 mg/kg, s.c.), rosiglitazone (TZD, 5 mg/kg, p.o.), or vehicle. FGF-1 was administered once daily, and blood glucose levels were measured at day 0 (basal levels before FGF-1 injection), day 3, and day 6, 1 hour after injection. The values (±SE) shown are the average of the measurements of 5 animals in a group; (B) Sustained glucose lowering effects of FGF-1: Fed blood glucose levels in ob/ob mice at indicated time points after the last FGF-1 injection at day 6. (C-H): 72 hrs after the sixth dose, another dose was given and effects of FGF-1 and TZD on (C) body weight, (D) total body fat, (E) lean weight, (F) weight gain, (G) liver weight, and (H) heart weight were determined.
as §1
Eight-week-old male ob/ob mice were treated with recombinant mouse FGF-1 (0.5 mg/kg/day, s.c. in 250 μl), rosiglitazone (TZD, 5 mg/kg/day, p.o. in 300 μl), or vehicle control (s.c. vehicle control 0.9% NaCl, 250 μl/mouse; p.o. vehicle control 0.5% CMC, 300 μl/mouse). Blood glucose was measured one hour after treatment at day 3 and day 6 using a standard protocol. (FIG. 7A).
Before treatment, all groups were severely hyperglycemic, as indicated by blood glucose levels of about 400 mg/dl. […] At 6 days, blood glucose levels were even further reduced to around 130-140 mg/dl for both groups. After the sixth dose, blood glucose levels were monitored for another 72 hrs. During this period, both FGF-1- and TZD-treated cohorts maintained normoglycemic levels (<140 mg/dl) for at least 48 hrs (FIG. 7B). At 72 hrs after the sixth dose, a final dose was given, and 12 hrs later, a total body composition analysis was performed by MRI followed by necropsy.

The mark [3] stands for this setting: after the 36 day treatment period.

B1: FGF-1: recombinant mouse FGF-1 (acidic fibroblast growth factor), a secreted protein that binds heparin and FGF receptors (protein, UniProt P61148 16-155, looked up)
Fibroblast growth factor 1: FNLPLGNYKKPKLLYCSNGGHFLRILPDGTVDGTRDRSDQHIQLQLSAESAGEVYIKGTETGQYLAMDTEGLLYGSQTPNEECLFLERLEENHYNTYTSKKHAEKNWFVGLKKNGSCKRGPRTHYGQKAILFLPLPVSSD
Take B1: the “acute blood glucose effect by s.c., i.p. and i.v. delivery” value in the test on ob/ob diabetic mice (0.5 mg/kg) is “about the same for all three injection methods”. Also, the “time of stable glucose levels after intravenous administration” value with ob/ob diabetic mice (0.5 mg/kg i.v., duration of the test) is reported as “at least 60 hours”. For the same molecule, the “duration of glucose normalizing effect, iv compared to sc” value in the test on ob/ob diabetic mice (single injection 0.5 mg/kg) is “persist longer when administered iv as compared to sc”. The “glucose tolerance (GTT)” value in the test with ob/ob mice [1] is “cleared glucose more effectively than untreated controls; also recorded: enhances glucose tolerance”. In addition, the “blood glucose under chronic treatment” value in the test on ob/ob mice [2] (0.5 mg/kg every third day s.c., 36 days) was “glucose levels are normalized by the first time point tested (day 2) and remain stable for the remainder of the test period; also recorded: completely normalized blood glucose”. In the test on ob/ob mice [2] (0.5 mg/kg/3 days s.c.), the “body weight / weight gain” value was “remains lower than in untreated ob/ob mice; also recorded: reduced weight gain during the first week”; the food intake entry is “initially results in reduced food intake; also recorded: reduced food intake during the first 1-2 weeks of chronic administration, but after two weeks food intake returned to normal”; the percent lean mass result is “significantly higher than in untreated mice; also recorded: increased lean mass as compared with control mice”; the “total percent body fat” value is reported as “reduced percentage body fat; also recorded: reduced increase in percent body fat”. For the same molecule, in the test with ob/ob mice [2] (setting [3]), the hepatic glycogen entry is on record as “much higher; also recorded: increased levels of hepatic glycogen”; the “hepatic steatosis (H&E staining of liver)” value is “much less steatosis, and little if any inflammation; also recorded: Steatosis is dramatically reduced compared to control”. Further, in the test with ob/ob male mice (fed ob/ob male mice, one hour after treatment, FGF-1 0.5 mg/kg/day s.c., TZD 5 mg/kg/day p.o., about 400 mg/dl before treatment), the “blood glucose levels at day three” value is “about 200 mg/dl”. For the same molecule, the “blood glucose (in words)” value with ob/ob male mice (ob/ob diabetic mice, FGF-1 administration) is on record as “decreases fed blood glucose in ob/ob mice; also recorded: normalizes their glucose levels”. Also, in the test with ob/ob male mice (ob/ob mice, total body composition by MRI), the fat-lean ratio result is “improves their fat-lean ratio”.
